Results published in PMC10899635 (2024).

B1: recombinant Q586B2 protein (natural protein)
chain: MPNLVVTATFSPPAFSIVGSPLREDTIKHMEERIPTVLSTALSRSREPSYFVHSKNPESWKMELSQHFCDELHRAAVSLVIIECLDAEGWVLRTSSSSQDTNEGKCCIKFYFTRS
B2: Nb27 (VHH)
VHH: QVQLQESGGGLVQPGGSLRLSCTTSRSILSIYAMGWYRQAPGKQRELVAVITSGGSTYYADSVKGRFTISRDNAKNTLYLQMNSLKPEDTALYYCARGGYGTSPQPSWGQGTQVTVSS
B3: Nb39 (VHH)
VHH: QVQLQESGGGLVQPGGSLRLSCTASGSIFSGYAMGWYRQAPGKQRELVAGITSGGSTIYAGSVKGRFTISRDNAKNTVYLQMNSLKPEDTAVYYCKNGTYYSARDYWGQGTQVTVSS

Experiments:
[1] = target: B1

Binder | Kd (Nb36) | Kd (Nb34) | Kd [1]
B1 | 11.3 nM | 36.7 nM | –
B2 | – | – | 52 nM
B3 | – | – | 49.9 nM
